In IntAct's records for PubMed 31515488:

B1: Ropporin-1A (Homo sapiens), Q9HAT0 (parent)
chain: MAQTDKPTCIPPELPKMLKEFAKAAIRVQPQDLIQWAADYFEALSRGETPPVRERSERVALCNRAELTPELLKILHSQVAGRLIIRAEELAQMWKVVNLPTDLFNSVMNVGRFTEEIEWLKFLALACSALGVTITKTLKIVCEVLSCDHNGGSPRIPFSTFQFLYTYIAKVDGEISASHVSRMLNYMEQEVIGPDGIITVNDFTQNPRVQLE
B2: Trichoplein keratin filament-binding protein (Homo sapiens), Q9BT92 (parent)
chain: MALPTLPSYWCSQQRLNQQLARQREQEARLRQQWEQNSRYFRMSDICSSKQAEWSSKTSYQRSMHAYQREKMKEEKRRSLEARREKLRQLMQEEQDLLARELEELRLSMNLQERRIREQHGKLKSAKEEQRKLIAEQLLYEHWKKNNPKLREMELDLHQKHVVNSWEMQKEEKKQQEATAEQENKRYENEYERARREALERMKAEEERRQLEDKLQAEALLQQMEELKLKEVEATKLKKEQENLLKQRWELERLEEERKQMEAFRQKAELGRFLRHQYNAQLSRRTQQIQEELEADRRILQALLEKEDESQRLHLARREQVMADVAWMKQAIEEQLQLERAREAELQMLLREEAKEMWEKREAEWARERSARDRLMSEVLTGRQQQIQEKIEQNRRAQEESLKHREQLIRNLEEVRELARREKEESEKLKSARKQELEAQVAERRLQAWEADQQEEEEEEEARRVEQLSDALLQQEAETMAEQGYRPKPYGHPKIAWN
partner: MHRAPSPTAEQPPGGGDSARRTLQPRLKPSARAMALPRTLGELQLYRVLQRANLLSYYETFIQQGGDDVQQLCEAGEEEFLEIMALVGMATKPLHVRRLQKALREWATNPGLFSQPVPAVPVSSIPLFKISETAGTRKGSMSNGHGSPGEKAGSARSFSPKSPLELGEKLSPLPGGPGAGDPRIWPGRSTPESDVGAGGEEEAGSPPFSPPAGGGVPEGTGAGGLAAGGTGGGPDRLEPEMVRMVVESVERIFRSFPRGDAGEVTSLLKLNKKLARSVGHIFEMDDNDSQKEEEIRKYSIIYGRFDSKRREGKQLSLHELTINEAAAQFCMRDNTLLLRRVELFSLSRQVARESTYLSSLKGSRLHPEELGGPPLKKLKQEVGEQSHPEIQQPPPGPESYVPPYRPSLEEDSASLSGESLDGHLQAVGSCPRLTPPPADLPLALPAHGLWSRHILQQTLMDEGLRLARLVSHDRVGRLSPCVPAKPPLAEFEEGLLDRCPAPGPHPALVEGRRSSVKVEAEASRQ
B3: Caspase recruitment domain-containing protein 9 (Homo sapiens), Q9H257 (parent)
chain: MSDYENDDECWSVLEGFRVTLTSVIDPSRITPYLRQCKVLNPDDEEQVLSDPNLVIRKRKVGVLLDILQRTGHKGYVAFLESLELYYPQLYKKVTGKEPARVFSMIIDASGESGLTQLLMTEVMKLQKKVQDLTALLSSKDDFIKELRVKDSLLRKHQERVQRLKEECEAGSRELKRCKEENYDLAMRLAHQSEEKGAALMRNRDLQLEIDQLKHSLMKAEDDCKVERKHTLKLRHAMEQRPSQELLWELQQEKALLQARVQELEASVQEGKLDRSSPYIQVLEEDWRQALRDHQEQANTIFSLRKDLRQGEARRLRCMEEKEMFELQCLALRKDSKMYKDRIEAILLQMEEVAIERDQAIATREELHAQHARGLQEKDALRKQVRELGEKADELQLQVFQCEAQLLAVEGRLRRQQLETLVLSSDLEDGSPRRSQELSLPQDLEDTQLSDKGCLAGGGSPKQPFAALHQEQVLRNPHDAGLSSGEPPEKERRRLKESFENYRRKRALRKMQKGWRQGEEDRENTTGSDNTDTEGS
partner: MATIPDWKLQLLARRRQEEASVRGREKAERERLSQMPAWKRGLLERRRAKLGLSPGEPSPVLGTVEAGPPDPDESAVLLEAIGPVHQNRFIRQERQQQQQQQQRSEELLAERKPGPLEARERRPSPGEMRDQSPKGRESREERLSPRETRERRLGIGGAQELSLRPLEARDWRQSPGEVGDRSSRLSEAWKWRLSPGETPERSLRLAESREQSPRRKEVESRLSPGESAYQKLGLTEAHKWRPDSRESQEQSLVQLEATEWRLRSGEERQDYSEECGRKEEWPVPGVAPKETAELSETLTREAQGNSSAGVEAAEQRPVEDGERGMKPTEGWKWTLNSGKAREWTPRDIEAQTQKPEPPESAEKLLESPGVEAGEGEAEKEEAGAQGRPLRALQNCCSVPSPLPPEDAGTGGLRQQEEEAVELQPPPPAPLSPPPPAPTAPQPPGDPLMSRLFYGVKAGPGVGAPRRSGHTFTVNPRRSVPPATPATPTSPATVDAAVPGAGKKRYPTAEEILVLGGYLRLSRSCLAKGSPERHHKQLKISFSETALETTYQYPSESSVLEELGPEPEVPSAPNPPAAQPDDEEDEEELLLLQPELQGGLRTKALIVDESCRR
B4: UV excision repair protein RAD23 homolog B (Homo sapiens), P54727 (parent)
chain: MQVTLKTLQQQTFKIDIDPEETVKALKEKIESEKGKDAFPVAGQKLIYAGKILNDDTALKEYKIDEKNFVVVMVTKPKAVSTPAPATTQQSAPASTTAVTSSTTTTVAQAPTPVPALAPTSTPASITPASATASSEPAPASAAKQEKPAEKPAETPVATSPTATDSTSGDSSRSNLFEDATSALVTGQSYENMVTEIMSMGYEREQVIAALRASFNNPDRAVEYLLMGIPGDRESQAVVDPPQAASTGAPQSSAVAAAAATTTATTTTTSSGGHPLEFLRNQPQFQQMRQIIQQNPSLLPALLQQIGRENPQLLQQISQHQEHFIQMLNEPVQEAGGQGGGGGGGSGGIAEAGSGHMNYIQVTPQEKEAIERLKALGFPEGLVIQAYFACEKNENLAANFLLQQNFDED
partner: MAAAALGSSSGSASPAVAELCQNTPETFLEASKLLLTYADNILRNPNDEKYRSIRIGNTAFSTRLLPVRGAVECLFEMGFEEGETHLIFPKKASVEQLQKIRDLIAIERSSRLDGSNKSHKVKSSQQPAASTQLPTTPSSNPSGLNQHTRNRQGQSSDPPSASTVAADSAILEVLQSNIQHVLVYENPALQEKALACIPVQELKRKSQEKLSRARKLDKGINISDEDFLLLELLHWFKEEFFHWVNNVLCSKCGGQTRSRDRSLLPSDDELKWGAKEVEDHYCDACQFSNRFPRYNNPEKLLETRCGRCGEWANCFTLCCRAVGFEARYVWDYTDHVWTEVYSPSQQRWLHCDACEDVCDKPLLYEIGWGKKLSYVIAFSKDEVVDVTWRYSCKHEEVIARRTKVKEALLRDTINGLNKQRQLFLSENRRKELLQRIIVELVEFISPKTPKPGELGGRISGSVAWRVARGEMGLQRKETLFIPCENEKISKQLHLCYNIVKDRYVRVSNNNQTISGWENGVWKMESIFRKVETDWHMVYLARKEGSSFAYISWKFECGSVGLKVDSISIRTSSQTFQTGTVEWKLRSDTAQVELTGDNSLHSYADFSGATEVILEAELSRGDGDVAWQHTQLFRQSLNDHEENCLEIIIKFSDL

Variants of: B1
Settings: with lnx1_human LNX1, Q8TBB1
lnx1_human LNX1, Q8TBB1, sequence (Q8TBB1 whole entry): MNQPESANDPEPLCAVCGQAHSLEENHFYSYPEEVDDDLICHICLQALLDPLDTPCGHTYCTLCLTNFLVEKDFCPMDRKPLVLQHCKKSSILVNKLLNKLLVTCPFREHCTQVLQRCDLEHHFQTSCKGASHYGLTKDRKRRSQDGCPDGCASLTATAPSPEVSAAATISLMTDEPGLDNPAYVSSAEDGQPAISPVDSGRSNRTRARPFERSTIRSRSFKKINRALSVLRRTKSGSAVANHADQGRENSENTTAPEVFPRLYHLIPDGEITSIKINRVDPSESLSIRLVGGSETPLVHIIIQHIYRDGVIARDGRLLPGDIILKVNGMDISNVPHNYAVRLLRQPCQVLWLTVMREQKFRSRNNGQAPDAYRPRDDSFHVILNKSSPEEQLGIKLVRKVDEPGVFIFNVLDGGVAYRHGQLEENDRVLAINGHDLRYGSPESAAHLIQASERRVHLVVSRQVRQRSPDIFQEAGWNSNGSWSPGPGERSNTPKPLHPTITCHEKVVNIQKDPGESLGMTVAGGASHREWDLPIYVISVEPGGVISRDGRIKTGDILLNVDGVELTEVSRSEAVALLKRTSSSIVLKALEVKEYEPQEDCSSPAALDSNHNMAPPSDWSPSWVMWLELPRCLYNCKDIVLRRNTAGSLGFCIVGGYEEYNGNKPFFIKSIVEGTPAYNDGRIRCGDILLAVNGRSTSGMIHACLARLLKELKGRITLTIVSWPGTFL

Row | Variant | effect of a mutation on the interaction
1 | C62W | with no effect

Variants of: B1
Settings: with hnrl1_human HNRNPUL1, Q9BUJ2
hnrl1_human HNRNPUL1, Q9BUJ2, sequence (Q9BUJ2 whole entry): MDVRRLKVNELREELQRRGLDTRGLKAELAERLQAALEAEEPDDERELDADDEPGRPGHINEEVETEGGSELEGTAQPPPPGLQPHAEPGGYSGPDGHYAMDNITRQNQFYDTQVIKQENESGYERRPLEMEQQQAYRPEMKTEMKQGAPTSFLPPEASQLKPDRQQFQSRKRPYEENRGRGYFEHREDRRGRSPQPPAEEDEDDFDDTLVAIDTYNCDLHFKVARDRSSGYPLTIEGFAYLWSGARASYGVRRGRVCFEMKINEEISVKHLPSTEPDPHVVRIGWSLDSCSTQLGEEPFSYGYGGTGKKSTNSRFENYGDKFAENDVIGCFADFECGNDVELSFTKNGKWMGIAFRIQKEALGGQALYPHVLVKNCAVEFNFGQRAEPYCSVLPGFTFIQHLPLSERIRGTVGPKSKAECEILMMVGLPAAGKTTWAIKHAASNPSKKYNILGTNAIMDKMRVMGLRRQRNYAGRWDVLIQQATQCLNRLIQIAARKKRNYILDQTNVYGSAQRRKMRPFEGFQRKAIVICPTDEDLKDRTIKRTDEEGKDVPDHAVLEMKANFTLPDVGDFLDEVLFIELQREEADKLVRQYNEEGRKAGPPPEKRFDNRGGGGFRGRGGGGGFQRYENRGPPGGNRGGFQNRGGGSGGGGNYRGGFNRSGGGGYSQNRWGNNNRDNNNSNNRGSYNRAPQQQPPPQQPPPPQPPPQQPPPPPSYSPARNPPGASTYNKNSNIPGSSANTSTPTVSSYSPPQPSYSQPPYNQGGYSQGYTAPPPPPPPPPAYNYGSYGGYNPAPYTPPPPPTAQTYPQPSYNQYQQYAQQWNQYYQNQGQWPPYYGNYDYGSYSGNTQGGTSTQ

Row | Variant | effect of a mutation on the interaction
2 | C62W | with no effect

Variants of: B1
Settings: with aapk1_human PRKAA1, Q13131
aapk1_human PRKAA1, Q13131, sequence (Q13131 whole entry, looked up): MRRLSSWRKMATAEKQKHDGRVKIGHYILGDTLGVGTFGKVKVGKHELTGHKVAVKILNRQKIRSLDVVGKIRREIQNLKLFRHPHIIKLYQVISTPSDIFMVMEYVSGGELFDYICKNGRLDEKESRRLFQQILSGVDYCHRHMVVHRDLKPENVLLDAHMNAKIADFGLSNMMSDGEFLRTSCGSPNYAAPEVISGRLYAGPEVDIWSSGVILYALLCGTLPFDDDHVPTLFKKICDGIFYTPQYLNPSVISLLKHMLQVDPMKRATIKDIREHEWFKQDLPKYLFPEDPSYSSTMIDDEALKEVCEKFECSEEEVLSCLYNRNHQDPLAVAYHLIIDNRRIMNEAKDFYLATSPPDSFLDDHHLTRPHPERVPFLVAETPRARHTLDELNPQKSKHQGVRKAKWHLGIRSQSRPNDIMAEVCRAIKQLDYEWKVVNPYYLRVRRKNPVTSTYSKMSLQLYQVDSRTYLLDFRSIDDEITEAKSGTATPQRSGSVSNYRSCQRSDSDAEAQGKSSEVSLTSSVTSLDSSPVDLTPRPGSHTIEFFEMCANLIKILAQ

Row | Variant | effect of a mutation on the interaction
3 | C62W | with no effect

Variants of: B2
Settings: with nab2_human NAB2, Q15742

Row | Variant | effect of a mutation on the interaction
4 | K127R | with no effect

Variants of: B3
Settings: with ppr18_human PPP1R18, Q6NYC8

Row | Variant | effect of a mutation on the interaction
5 | V385L | disrupting interaction strength

Variants of: B4
Settings: with ngly1_human NGLY1, Q96IV0

Row | Variant | effect of a mutation on the interaction
6 | T269R | with no effect
7 | P119H | with no effect
